Reference: US20060239990A1, “Protein Arginine N-Methyltransferase 2 (PRMT-2)” (priority 2003, published 2006)

B1: leptin: recombinant mouse leptin (Sigma-Aldrich Inc.) (protein, UniProt P41160 22-167, looked up)
Leptin: VPIQKVQDDTKTLIKTIVTRINDISHTQSVSAKQRVTGLDFIPGLHPILSLSKMDQTLAVYQQVLTSLPSQNVLQIANDLENLRDLLHLLAFSKSCSLPQTSGLQKPESLDGVLEASLYSTEVVALSRLQGSLQDILQQLDVSPEC
B2: PRMT2-Flag: Flag-tagged wild-type mouse PRMT2 fusion protein purified from transfected HEK293 cells (protein)
chain: MEAPGEGPCSESQVIPVLEEDPVDYGCEMQLLQDGAQLQLQLQPEEFVAIADYTATDETQLSFLRGEKILILRQTTADWWWGERAGCCGYIPANHLGKQLEEYDPEDTWQDEEYFDSYGTLKLHLEMLADQPRTTKYHSVILQNKESLKDKVILDVGCGTGIISLFCAHHARPKAVYAVEASDMAQHTSQLVLQNGFADTITVFQQKVEDVVLPEKVDVLVSEWMGTCLLFEFMIESILYARDTWLKGDGIIWPTTAALHLVPCSAEKDYHSKVLFWDNAYEFNLSALKSLAIKEFFSRPKSNHILKPEDCLSEPCTILQLDMRTVQVPDLETMRGELRFDIQKAGTLHGFTAWFSVYFQSLEEGQPQQVVSTGPLHPTTHWKQTLFMMDDPVPVHTGDVVHGFCCVTKKSGMEKAHVCLSELGCHVRTRSHVSTELETGSFRSGGDS
modifications: left off: small tags and cut ends
notes: Flag-tagged wild-type mouse PRMT2 fusion protein purified from transfected HEK293 cells

Assays:
[1] = Leptin sensitivity study in mice; type: in vivo, mouse; settings: for food intake: after administration of leptin
Experimental: To determine leptin sensitivity, 9- to 13-week-old mice, matched for similar body weight at both day 4 and day 0, were individually caged and body weight and food intake were measured once daily (5:30 pm) throughout the experiment. For the first 7 days, mice were injected intraperitoneally twice daily (12:00 pm and 6:00 pm) with PBS to establish a baseline of weight change and food intake. […] Body weight and food intake was measured once a day during the experiment.

[2] = system: hypothalamic POMC and NPY mRNA; test: Leptin treatment, hypothalamic POMC and NPY mRNA by real-time PCR; type: in vivo, mouse; settings: for weight loss: leptin 0.5 μg/g body weight
Experimental: Mice in the 8-12 week of age allowed free access to chow and water were intraperitoneally injection for 3 days with either PBS or recombinant mouse leptin (Sigma) at a dose of 0.5 μg/g body weight twice a daily (9:00 am and 7:00 pm). Hypothalamus was isolated from the mice at 6 hr after leptin treatment and snap-frozen. Total hypothalamic RNA was isolated using Trizol (Invitrogen) according to the manufacturer's instructions. Total RNA was treated with ribonuclease-free deoxyribonuclease (DNase) I for 30 min using a commercially available kit (Invitrogen) to eliminate contamination of genomic DNA. The RNA samples were reverse transcribed with TaqMan Reverse Transcription Reagents (Applied Biosystems, Foster City, Calif.) and subjected to automated fluorescent RT-PCR on an ABI PRISM 7700 Sequence Detection System (Applied Biosystems). All TaqMan probes were labeled with the reporter fluorescein at the 5′-end and with the quencher tetramethylrhodamine at the 3′-end. The following oligonucleotides derived form the mouse POMC and NPY were synthesized and used as primers and probes for Real-time PCR: POMC (sense, 5′-[…]-3′ (SEQ ID NO:42), antisense, 5′-[…]-3′ (SEQ ID NO:43), probe, 5′-6FAM-[…]-TAMRA-3′, SEQ ID NO:44); NPY (sense, 5′-[…]-3′ (SEQ ID NO:45), antisense, 5′-[…]-3′ (SEQ ID NO:46) probes, 5′-6FAM-[…]-TAMRA-3′ (SEQ ID NO:47)). TaqMan Rodent GAPDH Control Reagents (Applied Biosystems) were used as a control primers and probe for each template. Each predicted RT-PCR product spanned an intron/exon junction. The reactions were incubated for 2 min at 50° C., followed by 10 min at 95° C., and then 40 cycles of 15 sec at 95° C. and 1 min at 60° C. Each RT-PCR reaction was performed in triplicate in a final volume of 20 μl and assessed by the comparative Ct (ΔΔCt) method (Applied Biosystems, ABI Prism 7700 Users Bulletin #2).

Stat3 = test: Leptin-stimulated Stat3 immunoprecipitation and immunoblotting (methylation, PRMT-2 association); type: cell-based, mouse; settings: leptin 100 nM
Experimental: Immunoprecipitation of STAT3 was performed as follows. Cells treated with or without 100 nM mouse leptin for selected times were washed with phosphate buffered saline and lysed in Nonidet P-40 (NP-40) buffer (20 mM Tris-HCl, pH 8.0, 150 mM NaCl, 25 mM EDTA, 1.0% Triton-X, 0.1% SDS, 10% glycerol, 100 mM NaF, 100 mM Na3P2O7, 1.0% deoxycholic acid, 1 mM Na3VO4, 1× protease inhibitors cocktail; Roche Diagnostic Corp., Indianapolis, Ind.) or RIPA buffer (50 mM Tris-HCl, pH 8.0, 150 mM NaCl, 1% NP-40, 0.5% Na-deoxycholate, 0.1% SDS, 1× protease inhibitors cocktail). After the lysates were incubated to solubilize proteins for 30 min at 4° C., and before they were centrifuged at 15,000 rpm for 10 min at 4° C., the supernatants were rocked with either polyclonal anti-STAT3 antibodies (1:2,000) or monoclonal anti-Flag antibodies for 14 hr at 4° C., and then with protein G agarose for 3 hr at 4° C. For in vitro stimulation, the supernatants from extracted tissue homogenates were rocked with 2 μg polyclonal anti-IRS-1 antibody, and then protein G agarose for 3 hr at 4° C. The beads were washed three times with lysis buffer without proteinase inhibitors, solubilized in 15 μl 3×SDS-polyacrylamide gel electrophoresis (PAGE) buffer (187.5 mM Tris-HCl, 6% SDS, 30% glycerol, 150 mM dithiothreitol, 0.3% bromophenol blue, pH6.8), and subjected to the immunoblotting.
Immunoblotting was performed by boiling samples for 5 min at 95° C. followed by centrifugation for 1 min at 4° C. Aliquots of the supernatant were subjected to 7.5, 10% or 4-15% SDS-PAGE. Proteins in the gel were transferred to a nitrocellulose membrane by electroblotting. The membranes were treated with either anti-pTyr, anti-STAT3, anti-phospho STAT3, anti-α-metR, anti-IRS-1, anti-Flag, anti-phospho IRS-1, anti-arginine (mono- and di-methyl), or anti-β-actin antibodies followed by incubation with secondary antibodies conjugated with HRP. Immunoreactive proteins were detected either by ECL or by ECL plus system (Amersham Pharmacia Biotech). In some cases, bands were quantified using the NIH Image software (Image J version 1.2; National Institutes of Health, Bethesda, Md.). The figures are representative of 3 experiments.

hypothalamic Stat3 = test: Phospho-Stat3 immunohistochemistry of hypothalamus after leptin; type: in vivo, mouse; settings: wild-type mice, leptin 1.67 μg/g body weight peripheral
Experimental: After overnight fasting, brains of wild-type and PRMT2−/− mice treated with or without mouse leptin (1.67 μg/g body weight) for 90 min were removed immediately after decapitation, frozen in 2-methylbutane with a bed of crushed dry ice for 6 sec. 16-μm thick coronal sections were cut on a cryostat at −20° C. and were thaw-mounted on slides (K•D Medical Inc., Columbia, Md.). Sections were fixed with acetone for 10 min at 4° C. and then incubated in methanol for 30 min at −20° C. After treatment with 0.3% H2O2 in methanol for 30 min at room temperature to block endogenous peroxidase, sections were blocked in Tris-buffered saline (TBS)-Ca (100 mM Tris-HCl, pH 7.4, 150 mM NaCl, 1 mM CaCl2) containing 10% normal goat serum and 3% bovine serum albumin (BSA) and incubated with a rabbit anti-pStat3 (pY705) diluted in the same blocking solution as previously described above overnight at 4° C. On the next day sections were washed three time with TBS-Ca, incubated with a biotinylated secondary goat antibody in TBS-Ca containing 1% BSA for 1 hr at room temperature and then treated with ABC solution (Vector laboratories, Inc., Burlingame, Calif.) for 1 hr. In a final step, the signal was developed by DAB solution (Vector laboratories), giving a brown precipitate, dehydrated and mounted using Permount (Sigma-Aldrich). […]

GST-Stat3 = biological target: T1, GST-Stat3 (Mus musculus, UniProt P42227); test: In vitro methylation assay of GST-Stat3; type: biochemical; settings: Flag fusion protein from transfected HEK293 cells, [3H]-AdoMet
T1 construct: The same region with the Arg31→Ala mutant was generated from the wild-type pGEX6P-3 STAT3 construct; made in house; host or cells: E. coli (BL21 (DE3); Top10 One Shot)
T1 sequence (P42227 1-131 limits assumed): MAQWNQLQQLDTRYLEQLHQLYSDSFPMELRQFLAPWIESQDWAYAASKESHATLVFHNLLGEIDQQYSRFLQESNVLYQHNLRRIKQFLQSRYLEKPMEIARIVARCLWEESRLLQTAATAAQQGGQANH
Experimental: 293 cells were transiently transfected with expression vectors encoding Flag-tagged wild-type or mutant mouse PRMT2. After incubation for 48 hr, cells were lysed with 500 μl of RIPA buffer and 1.8 mg of 293 cell lysates was incubated with 40 μl of Anti-Flag M2 Affinity Gel (Sigma) for 3 hr at 4° C. Immune complexes were washed three times with lysis buffer without proteinase inhibitor and subjected to in vitro methylation reaction. Mouse fibroblasts were grown to 80% confluence on a 10 cm plate. Cells were washed and scraped off the plate into 500 μl of PBS (pH 7.4), and were lysed by sonication. After centrifugation at 15,000 rpm for 10 min at 4° C., the supernatants were used as the enzyme source. In vitro methylation reactions were performed by adding the immune complexes or cell lysates to 0.64 μg Histone and/or 1 μg of GST, GST-STAT3 or GST-STAT3 Arg31→Ala31 using 2 μCi of the methyl donor S-adenosyl-1[methyl-3H]methionine ([3H]-AdoMet) (Amersham Biosciences) in a final volume of 35 μl. The reactions were incubated for 1 hr at 4° C. and were terminated by addition of 3×SDS-loading buffer. […]

| Molecule | food intake ([1]; PRMT2−/− mice) [%] | weight change ([1]; PRMT2−/− mice, leptin 0.1 μg/g) | food intake ([1]; wild-type mice) | weight change ([1]; wild-type mice, leptin 0.1 μg/g peripheral injection, for 5 days) [g] | higher level of hypothalamic POMC mRNA compared with leptin-treated wild-type mice ([2]; PRMT2−/− mice, leptin 0.5 μg/g) [%] | hypothalamic NPY mRNA expression ([2]; PRMT2−/− mice, leptin 0.5 μg/g) | weight loss ([2]; PRMT2−/− mice) [g] | increase of hypothalamic POMC mRNA compared with untreated mice ([2]; wild-type mice, leptin 0.5 μg/g) [%] | weight loss ([2]; wild-type mice) [g] | PRMT-2 co-precipitated with STAT3 (Stat3; GT1-7 cells) | Stat3 methylation (Stat3; GT1-7 cells) | Stat3 methylation (Stat3; PRMT2−/− VSMC) | Stat3 methylation (Stat3; wild-type VSMC) | time of peak tyrosine phosphorylation of hypothalamic Stat3 (hypothalamic Stat3) [min] | methylation of GST-Stat3 (GST-Stat3) |
| --- | --- | --- | --- | --- | --- | --- | --- | --- | --- | --- | --- | --- | --- | --- | --- |
| B1 | ~92 | continuously lost weight for the duration of the study | did not alter food intake | -0.158 | ~90 | significantly reduced | -1.0 ± 0.2 | ~53 | -0.59 ± 0.29 | enhanced that amount PRMT-2 that co-precipitated with STAT3 | remarkably increased at 5 min and sustained for 60 min | increased Stat3 methylation was not observed | evoked a transient methylation of Stat3 at 10 min | 45 |  |
| B2 |  |  |  |  |  |  |  |  |  |  |  |  |  |  | could methylate GST-Stat3 |
